Results as given in patent US20210113605A1.
Where “and” joins values, the source holds several entries; their conditions need not be identical. Equal values may be shown once.

Target: T1, human TACI (transmembrane activator and CAML interactor, TNFRSF13B) on Tregs, iTregs and Bregs (human) (UniProt O14836)
T1 sequence: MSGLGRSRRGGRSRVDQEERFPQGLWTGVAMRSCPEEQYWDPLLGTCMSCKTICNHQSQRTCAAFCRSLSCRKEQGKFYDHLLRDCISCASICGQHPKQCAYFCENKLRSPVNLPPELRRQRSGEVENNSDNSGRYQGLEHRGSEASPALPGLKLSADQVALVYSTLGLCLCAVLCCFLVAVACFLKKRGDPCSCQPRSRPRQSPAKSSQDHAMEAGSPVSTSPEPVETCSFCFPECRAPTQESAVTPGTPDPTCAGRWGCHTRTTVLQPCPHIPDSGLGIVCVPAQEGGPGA
Experiment: cell-based or functional assay

With “recombinant human APRIL (a proliferation-inducing ligand) (from UniProt O75888 105-250)” the fold increase of MM cell-induced iTreg in CD4 T cells, against control media was > 1.5 fold and 1.5 to 4 fold, the percent Breg (CD19+CD24highCD38high) in B cells of MM patient BMMCs was 25.2% and the percent IL-10 production in Bregs of MM patient BMMCs was 29.2%. The percent proliferative iTreg (CTV-Foxp3+) in cocultures with U266 MM cells, representative experiment was 13.4%, the percent proliferative iTreg (CTV-Foxp3+) in cocultures with U266 MM cells, three experiments was 11.3% and the percent proliferative iTreg (CTV-Foxp3+CD4+) in cocultures with U266 MM cells, additional representative experiment was 8.02%.
